B1: ESRRA (parent)
chain: LGVAQRSLPLQDELAFAEDLVLDE

Variants of: B1
Assay: protein stability index of a GFP-peptide fusion (GPS, HEK-293T) (PSI 1-6); higher = more stable
Conditions: c terminus: a fixed tail appended
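Further: lentivirally expressed fusions sorted by FACS into six bins by GFP to DsRed ratio, PSI derived from sequencing read proportions per bin multiplied by bin number.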

First: LGVAQRSLPLQDELAFAEDLELDE [V21E]
Second: LGVAQRSLPLQDELAFAEDLVLWE [D23W]
The protein stability index of the first is higher: 5.31 for the first, 2.1 for the second.

Compared with LGWAQRSLPLQDELAFAEDLVLDE [V3W], LGVLQRSLPLQDELAFAEDLVLDE [A4L] is lower in protein stability index: 2.82 for the first, 2.42 for the second.

Compared with LGVAQRSLPLQDELAFAENLVLDE [D19N], LGVAQRSLPLQDELAFFEDLVLDE [A17F] is higher in protein stability index: 1.76 for the first, 4.19 for the second.

Going from LGVAQRSLPLQDELAFAEDLVLDI [E24I] to LGVAQRSLPKQDELAFAEDLVLDE [L10K], the protein stability index rises from 3.34 to 5.21.

Compared with LGVAQRSLPLQDELGFAEDLVLDE [A15G], LGSAQRSLPLQDELAFAEDLVLDE [V3S] is lower in protein stability index: 4.74 for the first, 2.64 for the second.

Going from LGVAQRSLPLQDELAFAEDLVLTE [D23T] to LGVAQRSLPLQDELAFAEDTVLDE [L20T], the protein stability index rises from 3.21 to 5.16.

Going from LGVPQRSLPLQDELAFAEDLVLDE [A4P] to LGVAQRSLPLQDELAFAEVLVLDE [D19V], the protein stability index falls from 3.1 to 1.76.

Compared with LGVAQRSLPLQDELAIAEDLVLDE [F16I], LGVAQRSLPLQDELCFAEDLVLDE [A15C] is higher in protein stability index: 2.34 for the first, 3.93 for the second.

First: LGVAQHSLPLQDELAFAEDLVLDE [R6H]
Second: LGVAQRSLPLQVELAFAEDLVLDE [D12V]
The protein stability index of the first is higher: 2.55 for the first, 2.22 for the second.

Going from LGVAQRSLPLQDELAFAEALVLDE [D19A] to LGVAQRSEPLQDELAFAEDLVLDE [L8E], the protein stability index rises from 1.89 to 5.

Going from LGVAQRSLPLQDELAFEEDLVLDE [A17E] to LGVAQRSLPLQDELAFNEDLVLDE [A17N], the protein stability index rises from 5.09 to 5.35.

Compared with LQVAQRSLPLQDELAFAEDLVLDE [G2Q], LGVAQRELPLQDELAFAEDLVLDE [S7E] is lower in protein stability index: 2.98 for the first, 2.57 for the second.

Compared with LGVAQTSLPLQDELAFAEDLVLDE [R6T], LGVAQRSLPLQRELAFAEDLVLDE [D12R] is lower in protein stability index: 3.23 for the first, 1.95 for the second.

Going from LGVAQRSLPYQDELAFAEDLVLDE [L10Y] to LGVAQRSLPLQDEFAFAEDLVLDE [L14F], the protein stability index rises from 5.12 to 5.55.

Compared with LEVAQRSLPLQDELAFAEDLVLDE [G2E], LMVAQRSLPLQDELAFAEDLVLDE [G2M] is lower in protein stability index: 3.17 for the first, 2.36 for the second.

First: LGVAQRILPLQDELAFAEDLVLDE [S7I]
Second: LGEAQRSLPLQDELAFAEDLVLDE [V3E]
The protein stability index of the first is lower: 2.98 for the first, 4.36 for the second.

Going from LGVAQRSLPLQDEMAFAEDLVLDE [L14M] to LGVHQRSLPLQDELAFAEDLVLDE [A4H], the protein stability index rises from 2.13 to 2.21.

Compared with LGVAQPSLPLQDELAFAEDLVLDE [R6P], LGVAQRNLPLQDELAFAEDLVLDE [S7N] is lower in protein stability index: 3.62 for the first, 2.46 for the second.

Compared with LGVAQRSLRLQDELAFAEDLVLDE [P9R], LGVAQRSLPLQDELEFAEDLVLDE [A15E] is higher in protein stability index: 3.95 for the first, 4.74 for the second.

First: LGVAQRSLPLQDLLAFAEDLVLDE [E13L]
Second: LGVAQRSLPLQDELAFAFDLVLDE [E18F]
The protein stability index of the first is lower: 2.5 for the first, 3.3 for the second.

Going from LGAAQRSLPLQDELAFAEDLVLDE [V3A] to LGVAQRSCPLQDELAFAEDLVLDE [L8C], the protein stability index rises from 2.92 to 3.2.

Compared with LGVAQRSLPLQDELAFAMDLVLDE [E18M], LGVAQRSLPLQDELAFAEDLVLVE [D23V] is lower in protein stability index: 3.84 for the first, 1.88 for the second.

Compared with LGVAQRSLPLQDERAFAEDLVLDE [L14R], LGVAQRSLPLQDELAFAEQLVLDE [D19Q] is lower in protein stability index: 5.33 for the first, 3.58 for the second.

Going from LGVAERSLPLQDELAFAEDLVLDE [Q5E] to LGVAQRSLPLPDELAFAEDLVLDE [Q11P], the protein stability index rises from 3.16 to 4.66.

First: LGVAQRSLPLQDELAHAEDLVLDE [F16H]
Second: LGVAQRSLPLQDGLAFAEDLVLDE [E13G]
The protein stability index of the first is lower: 3.46 for the first, 4.81 for the second.

Compared with LGRAQRSLPLQDELAFAEDLVLDE [V3R], LGVAQRSLPLQDELAFHEDLVLDE [A17H] is higher in protein stability index: 2.58 for the first, 4.95 for the second.

First: LGVAQRSLPLQDEEAFAEDLVLDE [L14E]
Second: VGVAQRSLPLQDELAFAEDLVLDE [L1V]
The protein stability index of the first is higher: 5.5 for the first, 2.8 for the second.

Going from LGVAQRSLPLTDELAFAEDLVLDE [Q11T] to LGYAQRSLPLQDELAFAEDLVLDE [V3Y], the protein stability index falls from 4.57 to 2.16.

Compared with LGVAQRMLPLQDELAFAEDLVLDE [S7M], LGVAQRSLPLQDELAFAEDLHLDE [V21H] is higher in protein stability index: 2.84 for the first, 5.28 for the second.

First: YGVAQRSLPLQDELAFAEDLVLDE [L1Y]
Second: LGVAQNSLPLQDELAFAEDLVLDE [R6N]
The protein stability index of the first is higher: 2.79 for the first, 2.64 for the second.

First: LKVAQRSLPLQDELAFAEDLVLDE [G2K]
Second: LGVAQRSLPLQDELAFAADLVLDE [E18A]
The protein stability index of the first is lower: 1.98 for the first, 4.25 for the second.

First: LGVDQRSLPLQDELAFAEDLVLDE [A4D]
Second: LGVAQRSLPLQDELADAEDLVLDE [F16D]
The protein stability index of the first is lower: 2.84 for the first, 3.47 for the second.

First: LGVAQRSLPLQDELAFAEDLVPDE [L22P]
Second: LGVAQSSLPLQDELAFAEDLVLDE [R6S]
The protein stability index of the first is higher: 5.34 for the first, 2.98 for the second.

First: LGVAARSLPLQDELAFAEDLVLDE [Q5A]
Second: LGVAQRSLPLQDHLAFAEDLVLDE [E13H]
The protein stability index of the first is lower: 2.51 for the first, 4.44 for the second.

First: LIVAQRSLPLQDELAFAEDLVLDE [G2I]
Second: LGVAQRSLPLQDELSFAEDLVLDE [A15S]
The protein stability index of the first is lower: 1.89 for the first, 3.68 for the second.

Going from LGVAQRSLPLQDELAFAEDLVLDA [E24A] to LGVAQRSLPLQDELAFAHDLVLDE [E18H], the protein stability index rises from 1.89 to 4.6.

Going from LGVAQRSLPLQDELAFGEDLVLDE [A17G] to LPVAQRSLPLQDELAFAEDLVLDE [G2P], the protein stability index falls from 4.76 to 3.92.

Compared with LGVAQRSLPLQDELAFACDLVLDE [E18C], LGVAQRSLPLQKELAFAEDLVLDE [D12K] is lower in protein stability index: 4.09 for the first, 2.98 for the second.

Compared with LGVAQRSLPLQDELAFAEDLVLGE [D23G], LGQAQRSLPLQDELAFAEDLVLDE [V3Q] is higher in protein stability index: 1.72 for the first, 2.84 for the second.

First: LGFAQRSLPLQDELAFAEDLVLDE [V3F]
Second: LGVAQRSLPLQDDLAFAEDLVLDE [E13D]
The protein stability index of the first is lower: 2.31 for the first, 2.5 for the second.

First: LGVAQRSLPLQDELAEAEDLVLDE [F16E]
Second: LGVAQRSLPLQDELAFAEMLVLDE [D19M]
The protein stability index of the first is higher: 3.61 for the first, 2.43 for the second.

Going from LGVAQRSLPLQDELAFAEDLYLDE [V21Y] to LGVAQRSLPLLDELAFAEDLVLDE [Q11L], the protein stability index falls from 4.61 to 3.3.

First: LGVAQRSLPLQDELAFAEDLVLDG [E24G]
Second: LGVAQRSLPLQDEDAFAEDLVLDE [L14D]
The protein stability index of the first is lower: 4.13 for the first, 5.68 for the second.

First: LGVAQRSLPLQDELAFAEDLVLDL [E24L]
Second: LGVAQRSLPLQDELAFAEPLVLDE [D19P]
The protein stability index of the first is lower: 2.3 for the first, 4.89 for the second.

Going from LGVAQRSLWLQDELAFAEDLVLDE [P9W] to LDVAQRSLPLQDELAFAEDLVLDE [G2D], the protein stability index falls from 3.21 to 3.02.

First: LGVAQRSLPLQDELAFAEDLVLIE [D23I]
Second: LGVAQRSLPEQDELAFAEDLVLDE [L10E]
The protein stability index of the first is lower: 1.51 for the first, 4.36 for the second.

Compared with LGVAQRSDPLQDELAFAEDLVLDE [L8D], LGVAQRSLPLQDENAFAEDLVLDE [L14N] is higher in protein stability index: 4.91 for the first, 5.42 for the second.
